# Reference: the NTF2 design screens of Basanta et al. (2020)
# Experiment: protease stability score; higher = more stable; yeast display proteolysis, trypsin and chymotrypsin;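 further: relative to predicted unfolded state with 0 unfolded-like and 1 meaning tenfold more protease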
row,Sequence,protease stability score
1,DEEHEDMDKYSKLLVEMLKTGDEHIFKILADPHVRIDINGREYHGWEDWVEVVRELRIHRLHFTHMEIQGDKLHLHLKSKFSFDGRVHEIEIRIHAKKVNGRWVIKEIRII,2.29
2,SEEEHLSKLTKKHMLHLWETGNETILEELADPNARHRWLVNGKEVTAHGREEVTRLFRDILDELGVDHLKLHSETVIGEKIHFDMIMIIGEFESRVRLNLHIVNGRIKEIDLQEQ,0.445
3,HEDEHYMQRIAEDILKSFLTGDFDHIYRMADPHVKLIVGDKESIGRDDMETMLRIWLEILGADHLEVKDLKTRLVGDKIEVNVDNRIQIGDKLINVKIEIIFEKVNGRWKVSRITLKLR,1.5
4,DHLEDDLDHYIRVLIKSWQTGDEELTEKLIDPRVRVEVGDKEFHGRKIFSEIAVHWRIKHHTIEHINTVGDKATIHSHVVLHFDGREITTTTIYFIEKVNGKWLLKSMHIQ,2.5
5,DDEEKMFVHLAKLFTDIMTTGDEKFLDELVDPNVRFDVNGRLRVGREELKKAIQDWWREIRVDEILIHEIDVIDGRLRMDGRMRGDIDGQETYLELHIILHVIDGRMTHVEIRHQ,2.38
6,SDEEIAAKYMEDELQKSLKTGDEQKFRHLADPNVRSDINGVELIGWELIIKYWREIRSKVEDVRLKRVDVQGDKIHLHGLVDVEINVNGVRTREHLESHFVIVKIDGRWYVHSIEIR,0.659
7,DEEEETEKKWADIFTKAWITGDEETLERLMDPNVKYHQEVGDKHWSAHGREEVSRHIHELLKHLGVKVVELRRIHVINGVVHVDGKTIVNGREFTVHIHYRIVDGRVREIRFEFR,2.22
8,SEDEEQAEHFLRLLVEALVTGDEDKIMKLIDPNVRLEAEGHDHHGRELFVKFWMELRVKEVQIEDVKLWNGRVRFDVRFDGTFNGKRFESTSHIILTKINGKWVLKKVEMR,0.106
9,DEDHEAMKHFQHLLERTHRTGDEERLLRLLDPNVRIIINGQHFHGREWWARHINHMRFHEYEFRVHHINVYGDKIEIDGTLRRRGEFDGREHEVNIRVHLTIEKFDGRWYMHILEFR,0.795
10,KEKEEIARMMLKELIKTIRTGDPEEWHKLFDPHVLIVIDGREIHGMEEHTRLLRELGIDRIELHTQHERHVSVQGDKVHLDIDVDGMFDGQKRRFHMHIDALKVNGQWVIQYIEIR,1.96
11,SDDERLAHHLVELLLHNIETGDFRMLMHLIDPNVRIDINGVEIHGREEWHKHLRTLGFDHFELHIDSIDAFDGKVIVHTTIRIKYNGVHFEKKTHLIAEKFDGRWYMREIRER,1.55
12,SEEEEWIIKVLRELTKSMETGDEDHLHHLADPDVRLHVGDKEFHGREDFKKWYTHLRIKHFELTDMRIQGEKAHLKVRVHMRYGDKEDRKEVDFTMIKIDGRWYLHSVHVR,2.09
13,SEEEEDVRIALLMLEHTMRTGDEEDTREMADPNVRVEVGDKELHGRELYVEWFHRLGVKHFDIREVRFIGDKVNIRGISHVNGRNYHVVLHARKIDGRWHLTLWEMR,1.41
14,SREEKEIKEIWELLVRSWLTGDEETLTHLLDPNARSVINGREYHGRETIAHELTRHLYELRIKDIELHHVDIIGDKVKIDSRVEYHFNGRETELKVEIVALKINGRWRLKDNIIK,1.47
15,DELEKDARKLFEMIYRMLKTGDEDHFLRLADPDVRVHQGDKEIHGMDISKQIVEDLGIQKIEVHVHKVEIQGDKVDITGEVNWNGQNINLIVYTEKVNGKWRIHSVELH,1.61
16,DEEDERNLKLFHLAMLASITGNEELIEQLVDPDVRIEINGRDKHGRETLIKLLERFDHFQWHRFHWRRLEIQGNKIIMLLEVHGTIHIGEFKIKLQTDTISIVTKIDGRWTIKELYIK,1.62
17,KESEEDARKFWEKMVEDNRTGDWDSFEKLVDPHVKMLFNGREYHGRDELLDLFRHIRFKDHEIHDMKVIGNKVRMDTRVHLNVNGREISVDTHLVVEKINGRWVLHSVLFH,1.62
18,DEDTELAERWVELFRKSVETGDEHKLEKLLDPHVKLDIGDKRYHGRELAVDTLKTMIDEMRSDHVTIDRVDVFDGRVILHSRIESTVDGRRTELEMRIVARKIDGRWVVESLEIN,1.49

row,Sequence,protease stability score
1,DEQEKHLKKISEDLLRIWLTGDEDTFREMADPDMRFIDEDHELHGREELIRMMREFWHKFKNARIEIHHVEVIGEYNNVDIRLSVDGRVVDVKLHFLIVNGRLKKVEVRER,2.07
2,DERHEHAKEYLEMWLHSIFTGDERTLMELVDPNAKHLVNGRERHGRDELSRILIHIRMHVRDSKLRDMRVVGDKAIIHTEVDEELHFNGRTVRMIVEVEIYLFKVNGKWVFTEIRII,1.29
3,DEEDKHLQEMVEKLVKNWLTGDWDKLRELLDPNTKSNIGEYTSIGWEKDAEAFEKLIHELGIKHMNFLIRRIHVVDGRAHSDVEIELEVDGRNTEVKTHLIVVIINGRVKSITVEYK,0.297
4,SEEDVLHHELARIYWRDFVTGDEDSLRRLMDPEAKVNFDGRENHGREFYEEILRLFLEKFRGVRFEEHRSRFIGEFTHIDVRMHIDGKTHSLKVLVTVVNGKVHSIHIQLR,1.26
5,DEQEHVAERIVNDLNHSMETGDEHRIRELVDPHVRVIIGDKELHGMEEFIRWLREFGVERIRVRLKRFSFVGNKIRLDTVMNINGQNVDTKLIIEKVDGRWLLRSIHVD,2.18
6,SEDERFWVERLEEVLRAILTGDEDRIRELADPDVRVRYGDKELHGWKDLHEFMEFFKNVRINVRHVRNQGDKQEVDSEFTFEGRRHETELRLVVINGRVRHIEIIIR,1.41
7,DELRTHAKKMILILFHHLLTGDEEWLHRFMDPSTRRDVGDKELHGMEQITHDIVKEIFLRGAEIHITIRTFRFQGNYLDANIEIKIIVNGQEIHFEVLIHIVKVDGVWLVRSMRFH,1.43
8,DEEALKKLQDILRRNDQDKMNKMIDKDVRVVIGEHEYRGKRNVQEALKREYEHADRFEVKHIEDHGDKLHVDVVLRVDGRDIRFVVVIDVHNGNIRNVKVDFTDEDTQRDFQRQLD,1.02
9,HEDEHLSRRFAELVLTYLETGDEDSILEMADPHVRTELIIGDKTFRYIGRENLERWLHEVLRKFKNLRFVPKRLHIQGDKVIMRGYVIFDGRTHETEMIWIVINGRIHAVLHHEH,1.81
10,SEEEEDRRIAVEEMLRYWHTGDEEDLNRLFDPNVRADFNGKDLVGREHMKEHYERLGYDKFDVRVKDVRVIGDKVEMDGHLRFDGVERDLHIFVIKVNGRWLVKHTEYR,0.904
11,SERHEESHERTRLLMHAHETGDFHTLQRLMDPDTRLLIIFNGREIHIHGMESAFKFFNEIRISHVTIHRVDIQGDKVNVDGEQEGQINGQRSRNRIHWDIDVIDGKIKRIIVEIR,0.993
12,EEIHKHLKELFVRWMKELVTGNEDSFKDLFDPHTRIHMHIGDKEIHAHGRKHLEDMILRFKGLRVEFRVEDSTAIGDKAHADFHLIIHVDGKNITTREEVRISVIDGKIREVHHHIN,1.36
13,DEERDETRELLRRLQELLRTGDEEEIRKLADPHVRSDVNGREYHGRDWATHLIMRFDHLDIERIRIFDGRIETDFRVEIGDKTFQTRMHVRKIDGRWNIKEIKII,1.55
14,DEKEDHMRKIALILIKDWLTGNEESLRHMADPNVRVHIHQGNKNIHKHGMEALRELWEEIRIRHFNLERQNVINGVVFIDGRVDGEVDGRRVDTDVEVIIVIVNGRMKLLSRHIE,1.34
15,SDEDKELEHVMKKFEDALSTGDENTLYSLLDPNVKLEIGDKEIHGMEEFVRVMKRHLHELGAKFRSITIEHWNIIGEKVRLHSKIILDFNGRDIFLNTHIVMFKFDGRWIFETFKIQ,2.23
16,DEEEHIMRRVTDILVHYIATGDEDSLTRLLDPHARIIIDGRTIHGREWIQHHLRRIDHIHMHSYHIHDIRIQGDKVYADQEIDVEHRVNGVTIRKRFHVNIITVKVNGQWYLHSINNQ,1.45
17,SEEKQDVDEFIKRVIETLETGDWRNRHDLLDPNVRIDIDGVELIGRHIALELDWYFLRHARVRMYIRHVNVQGEYMDVDGRLHIHQGDKNIHIETRLIVHKINGRWLIKSIELR,2.87
18,SEEEELLRRITDEMIESMLTGDEKYILENVDPNVRLHIGDKTYVGWETYEDHMRERLEKLGADHMKLEHKDHQGNYTLIEGNLSFNGRELEVRIKLIIVNGVLEQVEVRFD,0.955
